Data on one substance can be found in paper doi:10.1101/518761.

For this experiment, the target named is gp53C, C-terminal fragment of gene product 53 (gp53) of Acinetobacter baumannii bacteriophage AP22 (Acinetobacter baumannii bacteriophage AP22). Put plainly: crystal structure.

In turn, “gp53C, C-terminal fragment of gene product 53 (gp53) of Acinetobacter baumannii bacteriophage AP22 (domain or fragment)” yielded a stoichiometry N of 3.
